Data reported in PMC4772074 (Biochemistry, 2015).

Target: the molecule itself
Assay: SEC-MALS

B1: E. coli CheA (enzyme)
chain: MSMDISDFYQTFFDEADELLADMEQHLLVLQPEAPDAEQLNAIFRAAHSIKGGAGTFGFSVLQETTHLMENLLDEARRGEMQLNTDIINLFLETKDIMQEQLDAYKQSQEPDAASFDYICQALRQLALEAKGETPSAVTRLSVVAKSEPQDEQSRSQSPRRIILSRLKAGEVDLLEEELGHLTTLTDVVKGADSLSAILPGDIAEDDITAVLCFVIEADQITFETVEVSPKISTPPVLKLAAEQAPTGRVEREKTTRSNESTSIRVAVEKVDQLINLVGELVITQSMLAQRSSELDPVNHGDLITSMGQLQRNARDLQESVMSIRMMPMEYVFSRYPRLVRDLAGKLGKQVELTLVGSSTELDKSLIERIIDPLTHLVRNSLDHGIELPEKRLAAGKNSVGNLILSAEHQGGNICIEVTDDGAGLNRERILAKAASQGLTVSENMSDDEVAMLIFAPGFSTAEQVTDVSGRGVGMDVVKRNIQKMGGHVEIQSKQGTGTTIRILLPLTLAILDGMSVRVADEVFILPLNAVMESLQPREADLHPLAGGERVLEVRGEYLPIVELWKVFNVAGAKTEATQGIVVILQSGGRRYALLVDQLIGQHQVVVKNLESNYRKVPGISAATILGDGSVALIVDVSALQAINREQRMANTAA
stoichiometry N: 2
